Where two headings read alike, the source gives them in different places.
How the values were obtained:
Assay in all cases: SPR
L7Ae-K (L7-K) [1] = target: T1, L7Ae-K (L7-K) (Archaeoglobus fulgidus, UniProt O29494 1-119, K37A)
L7Ae [2] = target: T2, L7Ae (Archaeoglobus fulgidus, UniProt O29494 1-119)
L7Ae-K (L7-K) [3] = target: T1, L7Ae-K (L7-K); remark: listed apart in the source
L7Ae [4] = target: T2, L7Ae; remark: listed apart in the source

T2 sequence (O29494 whole entry): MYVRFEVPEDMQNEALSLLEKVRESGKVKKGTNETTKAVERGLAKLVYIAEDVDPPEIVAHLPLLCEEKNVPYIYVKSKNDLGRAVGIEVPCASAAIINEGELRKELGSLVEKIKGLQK
T1 sequence (O29494 whole entry K37A): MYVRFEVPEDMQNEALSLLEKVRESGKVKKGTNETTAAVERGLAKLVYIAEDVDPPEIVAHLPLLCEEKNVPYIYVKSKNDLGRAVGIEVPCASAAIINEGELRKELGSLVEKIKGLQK

Binder | Kd (L7Ae-K (L7-K) [1]) [nM] | Kd (L7Ae [2]) [nM] | Kd (L7Ae-K (L7-K) [3]) [nM] | Kd (L7Ae [4]) [nM]
GGAUCUGGGGUCUGAACGGUGAUGACCCGGAUCC (structured_RNA) [K-loop] | 26 | 2.2 | – | –
GGAUCUGGGGCGUGAUCCGAAAGGUGACCCGGAUCC (structured_RNA) [K-turn] | – | – | 15 | 1.6

Source: article PMC4165468
